Here are results for two substances from publication PMC12388516.

In the experiment the target is bovine thrombin (thrombin reagent) (bovine).

Some results are limits rather than exact numbers.

“recombinant hirudin HV1 expressed in E. coli strain SHuffle T7 (natural protein)” showed a thrombin time (TT) clotting time of human plasma with bovine thrombin; hirudin HV1 at 0.32 and 3.2 µmol/L; expressed at 30 °C; cut-off 300 s above 300 s.

Turning to “recombinant hirudin-like factor HLF1V expressed in E. coli strain SHuffle T7 (natural protein)”, the thrombin time (TT) clotting time of human plasma with bovine thrombin; HLF1V at 0.32 and 3.2 µmol/L; expressed at 30 °C; cut-off 300 s is above 300 s.
